Results taken from publication PMC7407834 (2020).
Ends that are not written are not given here.

Columns and labels:
USPIO-LRPep2 = biological target: T1, USPIO-LRPep2 (not fully specified (N-terminus, bridges); cysteine pairing not given here; also: grafted to USPIO nanoparticle); assay: ELISA
T1 chain: HPWCCGLRLDLR

phage clone 1 peptide = biological target: T2, phage clone 1 peptide (phage-displayed); assay: ELISA
T2 chain: GHIPTCLTPMCR

Kd (USPIO-LRPep2): 72.5 nM
Kd (phage clone 1 peptide): 0.136 nM
B1: LDLR 22-788 (protein)
chain: not shown
